Data on seven molecules can be found in article PMC4346919, “Structural Analysis of the Complex between Penta-EF-Hand ALG-2 Protein and Sec31A Peptide Reveals a Novel Target Recognition Mechanism of ALG-2” (International Journal of Molecular Sciences, 2015).

To fix the notation:
B1: biotin-labeled ALG-2 (natural protein, human, UniProt O75340 1-191, looked up)
chain: MAAYSYRPGPGAGPGPAAGAALPDQSFLWNVFQRVDKDRSGVISDTELQQALSNGTWTPFNPVTVRSIISMFDRENKAGVNFSEFTGVWKYITDWQNVFRTYDRDNSGMIDKNELKQALSGFGYRLSDQFHDILIRKFDRQGRGQIAFDDFIQGCIVLQRLTDIFRRYDTDQDGWIQVSYEQYLSMVFSIV
modifications: biotin-labeled
notes: ALG-2 (PDCD6), probe of the far-Western blots; also called bio-ALG-2

What all share (experiment): far-Western, overlay or dot blot; purified GST-fused peptides resolved by SDS-PAGE, transferred to PVDF membranes and probed with biotin-labeled ALG-2; chemiluminescence, quantified with ImageJ
Settings in all cases: both partners purified

Assay [1] deals with T1, GST-8 aa-fusion of PLSCR3 (43–50) (UniProt Q9NRY6 43-50).
T1 construct: PLSCR3 residues 43-50; also called PLSCR3 8 aa, encoding 43–50
T1 chain (looked up): PAPAPGFA

For assay [2], the target named is T2, GST-fused Sec31A 8-residue peptide P4S (human, P4S).
T2 construct: Sec31A residues 837-844; numbers count on: the 8-residue peptide (N1 = residue 837 of Sec31A)
T2 chain: NPPSPGFI

The assay “biotin-labeled ALG-2” concerns the target B1.

For B1, the “FW signal relative to that for Sec31A” value in assay [1] was < 0.0625 of the signal for Sec31A. In addition, the “relative binding activity (percent of WT)” value in assay [2] is ~20 % of WT.

B2: GST-fused Sec31A 8-residue peptide P5L (peptide)
chain: NPPPLGFI
notes: Sec31A residues 837-844; numbers count on: the 8-residue peptide (N1 = residue 837 of Sec31A)
Regarding B2, the binding result with biotin-labeled ALG-2 is given as “binds”.

B3: GST-fused Sec31A 8-residue peptide P5A (peptide)
chain: NPPPAGFI
notes: as for B2
Regarding B3, the binding result with biotin-labeled ALG-2 is “binds”.

B4: GST-fused Sec31A 8-residue peptide P4A (peptide)
chain: NPPAPGFI
notes: as for B2
B4: the binding result with biotin-labeled ALG-2 was “binds”.

B5: GST-fused Sec31A peptide, 13 aa (837–849) (peptide, UniProt O94979 837-849, looked up)
chain: NPPPPGFIMHGNV
notes: Sec31A residues 837-849; also called Sec31A 13 aa, encoding 837–849
B5: in the assay with biotin-labeled ALG-2, the binding result is “binds”.

B6: GST-fused Sec31A peptide, 13 aa (839–851) (peptide, UniProt O94979 839-851, looked up)
chain: PPPGFIMHGNVNP
notes: also called Sec31A 13 aa, encoding 839–851
On to B6, for which the binding result in the assay with biotin-labeled ALG-2 is “binds”.

B7: GST-fused Sec31A 8-residue peptide P2A (peptide)
chain: NAPPPGFI
notes: as for B2
Take B7: in the assay with biotin-labeled ALG-2, the binding result is “binds”.
